The text below walks through data of patent publication US20230159663A1 (VIRTUOSO BINCO, published 2023).

Positions count from the first letter of the chain named.

Test [1] deals with T1, human CD47 extracellular domain with C-terminal 6×His tag (human, UniProt Q08722 19-139, limits assumed).
T1 construct: extracellular domain; Made in Expi293F cells (section 5.4.1); also called recombinant CD47; huCD47
In words: ELISA on human CD47.

Test [2] has as its target T2, human EpCAM extracellular domain with C-terminal His tag (Novoprotein #C339) (human, UniProt P16422 24-265).
T2 construct: extracellular domain; Bought protein
T2 sequence (looked up): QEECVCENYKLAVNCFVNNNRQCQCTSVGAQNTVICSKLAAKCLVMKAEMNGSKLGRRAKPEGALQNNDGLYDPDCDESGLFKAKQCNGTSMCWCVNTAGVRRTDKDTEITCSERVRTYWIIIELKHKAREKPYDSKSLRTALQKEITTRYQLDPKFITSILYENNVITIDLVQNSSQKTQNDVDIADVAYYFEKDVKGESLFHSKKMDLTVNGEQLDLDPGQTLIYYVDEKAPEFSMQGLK
In words: assay not given; ranks EpCAM affinity among Bi-1, Bi-2 and Bi-8.

For test [3], the target named is T1, human CD47 extracellular domain with …. In words: ELISA on human CD47; EC50 given as a bin, limits from the table's legend; upper limit of bin A.
Description: (§1) A 96-well plate was coated overnight at 4° C. with 1 μg/ml recombinant CD47. After washing 3 times, the plate was blocked with 300 μl 1% BSA in PBST at 37° C. for 1 hour. Serially diluted antibodies were added and incubated at 37° C. for 1 hour. […] The plate was washed again 4 times with PBST, incubated with 3,3′,5,5′-tetramethylbenzidine (TMB) substrate for 15 min at room temperature, terminated with 1N HCl, and then read at 450 nm.
For test [4] the target is unchanged. Nature of the test: ELISA on human CD47; EC50 given as a bin, limits from the table's legend; lower limit of bin A.
Description: as §1
In test [5] the target is T3, CD47 expressed on human red blood cells (human, UniProt Q08722 19-323).
T3 construct: whole, on cells; also called RBCs; RBC
In words: flow cytometry on human red blood cells.
Description: The RBC binding assay was performed by spinning down fresh human whole blood at 200 g for 10 minutes. Collected RBCs were washed twice with PBS and counted using flow cytometry. 1×10⁶ cells were dispensed into each well of a 96 well culture plate. Serially diluted anti-CD47 antibodies were added and incubated for 1 hour at 4° C. Cells were washed with FACS buffer (PBS+2% FBS) twice. […] Cells were washed twice and resuspended in 200 μl of FACS buffer and analyzed by flow cytometry.

The target of test [6] is T1, human CD47 extracellular domain with …. In words: ELISA on human CD47; EC50 given as a bin, limits from the table's legend; upper limit of bin B.
Description: as §1
The target is the same in test [7]. Nature of the test: ELISA on human CD47; EC50 given as a bin, limits from the table's legend; lower limit of bin B.
Description: as §1
Test [8] shares this target. In words: ELISA on human CD47; EC50 given as a bin, limits from the table's legend; lower limit of bin C.
Description: as §1
For test [9] the target is unchanged. In words: ELISA on human CD47; EC50 given as a bin, limits from the table's legend; upper limit of bin C.
Description: as §1

B1: Bi-8 (3C-KIH EpCAM × CD47 scFv bispecific antibody) (bispecific antibody)
chain: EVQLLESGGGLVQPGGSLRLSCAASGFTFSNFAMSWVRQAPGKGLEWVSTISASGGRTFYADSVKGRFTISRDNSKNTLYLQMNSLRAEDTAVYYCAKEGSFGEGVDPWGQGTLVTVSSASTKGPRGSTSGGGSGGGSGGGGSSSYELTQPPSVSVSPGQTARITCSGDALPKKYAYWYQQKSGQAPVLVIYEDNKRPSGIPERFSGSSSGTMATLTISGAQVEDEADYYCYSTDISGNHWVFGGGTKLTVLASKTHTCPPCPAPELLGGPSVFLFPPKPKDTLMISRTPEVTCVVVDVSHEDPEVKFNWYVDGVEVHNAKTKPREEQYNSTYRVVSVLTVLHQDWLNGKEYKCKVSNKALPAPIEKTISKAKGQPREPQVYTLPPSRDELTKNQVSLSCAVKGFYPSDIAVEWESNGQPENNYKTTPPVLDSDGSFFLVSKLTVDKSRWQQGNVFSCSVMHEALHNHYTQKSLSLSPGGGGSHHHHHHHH
heavy: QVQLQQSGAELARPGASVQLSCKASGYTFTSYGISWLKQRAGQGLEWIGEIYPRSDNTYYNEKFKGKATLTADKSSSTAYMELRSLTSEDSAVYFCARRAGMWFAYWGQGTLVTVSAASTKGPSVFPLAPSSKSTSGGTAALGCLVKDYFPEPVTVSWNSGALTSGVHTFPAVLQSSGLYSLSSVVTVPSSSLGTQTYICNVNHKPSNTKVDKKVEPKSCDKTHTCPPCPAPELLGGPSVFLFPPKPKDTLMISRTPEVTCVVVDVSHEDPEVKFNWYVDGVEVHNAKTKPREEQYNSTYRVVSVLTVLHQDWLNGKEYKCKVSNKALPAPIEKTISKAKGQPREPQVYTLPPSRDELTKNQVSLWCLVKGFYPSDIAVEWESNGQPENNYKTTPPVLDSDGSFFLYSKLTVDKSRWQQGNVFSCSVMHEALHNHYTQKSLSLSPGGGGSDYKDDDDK
VL: EIVLTQSPAITAASLGQKVTITCSASSSVSDMHWYQQKSGTSPKPWIYEISKLASGVPTRFSGSGSGTSYSLTISSMEAEDAAIYYCQHWSYPLMTFGGGTKLEIK
notes: Three-chain knob-into-hole format
With B1, the binding result in test [1] and in test [2] was “binds” each time.

B2: VIR47 hIgG1 (antibody)
heavy: not shown
light: SYEMTQPPSVSVSPGQTARITCSGDALPKKYAYWYQQKSGQAPVLVIYEDNKRPSGIPERFSGSSSGTMATLTISGAQVEDEADYYCYSTDISGNHWVFGGGTELTVLGQPKAAPSVTLFPPSSEELQANKATLVCLISDFYPGAVTVAWKADSSPVKAGVETTTPSKQSNNKYAASSYLSLTPEQWKSHRSYSCQVTHEGSTVEKTVAPTECS
notes: also called VIR47 IgG1; IgG1 form of VIR47
Take B2: the values for the EC50 in test [3] and in test [4] were not above 0.15 nM and not below 0.01 nM, respectively. The “fold higher concentration required for RBC binding, against CD47 BMK-1” value in test [5] is more than 20 fold.

B3: VIR47 IgG1 HC G100aA (antibody, V domains shown)
VH: EVQLLESGGGLVQPGGSLRLSCAASGFTFSNFAMSWVRQAPGKGLEWVSTISASGGRTFYADSVKGRITISRDNSKNTLFLQMNGLRAEDTAVYYCAKEGSFGEAVDPWGQGTLVTVSS
VL: SYEMTQPPSVSVSPGQTARITCSGDALPKKYAYWYQQKSGQAPVLVIYEDNKRPSGIPERFSGSSSGTMATLTISGAQVEDEADYYCYSTDISGNHWVFGGGTELTVLG
notes: Alanine-scan variant of the IgG1 form of VIR47; position in Kabat-style numbering, not the linear count on the entry
As to B3, the EC50 was not above 0.4 nM in [6] and not below 0.15 nM in [7].

B4: VIR47 IgG1 HC F98A (antibody, V domains shown)
VH: B3 VH with F102A, A105G
VL: B3 VL
notes: as for B3
For B4, the EC50 in test [8] is not below 0.4 nM; in test [9], not above 5 nM.
